Data from IntAct's records for PubMed 19412162.

B1: F-box only protein 31 (Homo sapiens), Q5XUX0 (parent)
chain: MAVCARLCGVGPSRGCRRRQQRRGPAETAAADSEPDTDPEEERIEASAGVGGGLCAGPSPPPPRCSLLELPPELLVEIFASLPGTDLPSLAQVCTKFRRILHTDTIWRRRCREEYGVCENLRKLEITGVSCRDVYAKLLHRYRHILGLWQPDIGPYGGLLNVVVDGLFIIGWMYLPPHDPHVDDPMRFKPLFRIHLMERKAATVECMYGHKGPHHGHIQIVKKDEFSTKCNQTDHHRMSGGRQEEFRTWLREEWGRTLEDIFHEHMQELILMKFIYTSQYDNCLTYRRIYLPPSRPDDLIKPGLFKGTYGSHGLEIVMLSFHGRRARGTKITGDPNIPAGQQTVEIDLRHRIQLPDLENQRNFNELSRIVLEVRERVRQEQQEGGHEAGEGRGRQGPRESQPSPAQPRAEAPSKGPDGTPGEDGGEPGDAVAAAEQPAQCGQGQPFVLPVGVSSRNEDYPRTCRMCFYGTGLIAGHGFTSPERTPGVFILFDEDRFGFVWLELKSFSLYSRVQATFRNADAPSPQAFDEMLKNIQSLTS

Variants of: B1
Conditions: with atm_human ATM

| Variant | effect of a mutation on the interaction |
| --- | --- |
| S278A | disrupting interaction |
| S400A | disrupting interaction |
